Positions count from the first letter of the chain named.
T1: PPR10 NN variant (maize, UniProt B8Y6I0 96-786, D314N)
T1 sequence: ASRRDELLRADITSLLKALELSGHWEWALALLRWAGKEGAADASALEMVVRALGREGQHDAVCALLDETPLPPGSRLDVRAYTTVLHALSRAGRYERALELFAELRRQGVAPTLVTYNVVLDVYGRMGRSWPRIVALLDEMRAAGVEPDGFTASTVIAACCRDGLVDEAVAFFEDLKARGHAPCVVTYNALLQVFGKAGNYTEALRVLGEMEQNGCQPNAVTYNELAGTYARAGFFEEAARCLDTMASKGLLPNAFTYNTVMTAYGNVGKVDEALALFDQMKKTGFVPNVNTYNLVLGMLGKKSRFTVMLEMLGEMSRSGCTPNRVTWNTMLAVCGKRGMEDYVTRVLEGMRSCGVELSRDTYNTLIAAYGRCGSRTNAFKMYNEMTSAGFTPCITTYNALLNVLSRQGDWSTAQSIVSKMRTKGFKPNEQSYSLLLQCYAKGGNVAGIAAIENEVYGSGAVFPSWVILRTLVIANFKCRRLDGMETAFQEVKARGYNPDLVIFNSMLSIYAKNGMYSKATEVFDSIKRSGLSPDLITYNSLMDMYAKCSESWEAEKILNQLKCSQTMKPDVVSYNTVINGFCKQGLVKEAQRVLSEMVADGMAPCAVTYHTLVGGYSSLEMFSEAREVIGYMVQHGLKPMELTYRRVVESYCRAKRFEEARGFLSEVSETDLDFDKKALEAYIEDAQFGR

T2: PPR10 NS variant (maize, UniProt B8Y6I0 96-786, D314S;N349S)
T2 sequence: T1 sequence with N219S, N254S

T3: PPR10 ND variant (maize, UniProt B8Y6I0 96-786, N349D)
T3 sequence: T1 sequence with N219D, N254D

T4: rPPR10 wild-type (maize, UniProt B8Y6I0 96-786)
T4 sequence: T1 sequence with N219D


How the values were obtained:
PPR10 NN variant [1] = target: T1, PPR10 NN variant; assay: EMSA; affinity similar to CC RNA; EMSA: radiolabeled RNA 15 pM, protein 0, 5, 10, 20 nM; binding buffer and temperature by reference [12]; protein stock in 400 mM NaCl, 50 mM Tris-HCl pH 7.5, 5; details: protein: recombinant; tags: MBP fusion removed by TEV cleavage; label: radiolabeled; single-stranded
PPR10 NS variant = target: T2, PPR10 NS variant; assay: EMSA; EMSA: radiolabeled RNA 15 pM, protein 0, 5, 10, 20 nM; binding buffer and temperature by reference [12]; protein stock in 400 mM NaCl, 50 mM Tris-HCl pH 7.5, 5; details: protein: recombinant; tags: MBP fusion removed by TEV cleavage; label: radiolabeled; single-stranded
PPR10 ND variant = target: T3, PPR10 ND variant; assay: as above; details: protein: recombinant; tags: MBP fusion removed by TEV cleavage; label: radiolabeled; single-stranded
PPR10 NN variant [2] = target: T1, PPR10 NN variant; assay: EMSA; affinity similar to UU RNA; EMSA: radiolabeled RNA 15 pM, protein 0, 5, 10, 20 nM; binding buffer and temperature by reference [12]; protein stock in 400 mM NaCl, 50 mM Tris-HCl pH 7.5, 5; details: protein: recombinant; tags: MBP fusion removed by TEV cleavage; label: radiolabeled; single-stranded
rPPR10 wild-type = target: T4, rPPR10 wild-type; assay: SV-AUC; 3 uM protein, 1.5 or 3 uM RNA; 1:1 monomer complex; EMSA: radiolabeled RNA 15 pM, protein 0, 5, 10, 20 nM; binding buffer and temperature by reference [12]; protein stock in 400 mM NaCl, 50 mM Tris-HCl pH 7.5, 5; details: protein: recombinant; tags: MBP fusion removed by TEV cleavage; single-stranded

Binder	binding result (PPR10 NN variant [1])	Kd (PPR10 NS variant)	Kd (PPR10 ND variant)	binding result (PPR10 NN variant [2])	binding result (rPPR10 wild-type)
GUAUUCUUAACCAUUUC (ssRNA) [UU RNA]	binds	20 nM	~3 nM		
GUACCCUUAACCAUUUC (ssRNA) [CC RNA]		9 nM	17 nM	binds	
GUAUCCUUAACCAUUUC (ssRNA) [PPR10 17-nt minimal RNA ligand]					binds

Source: PMC3420917, “A Combinatorial Amino Acid Code for RNA Recognition by Pentatricopeptide Repeat Proteins” (PLoS Genetics, 2012)
